Data on 1 molecule can be found in article PMC6155255, “Synthetic Peptides Derived from Bovine Lactoferricin Exhibit Antimicrobial Activity against E. coli ATCC 11775, S. maltophilia ATCC 13636 and S. enteritidis ATCC 13076” (Molecules : A Journal of Synthetic Chemistry and Natural …, 2017).

The test system of test [1] is E. coli ATCC 11775. Format: cell-based, Escherichia coli. The following applies: E. coli ATCC 11775, value in brackets (µM), 24 h at 37 °C, performed twice. As to the method: (§1) The MIC and MBC were determined using a microdilution assay. In brief, bacterial strains were incubated for 18 to 24 h at 37 °C in an MH broth until an optical density of 0.15 to 0.30 (620 nm) was obtained. 90 µL of Mueller-Hinton broth (MHB) were mixed with 90 µL of peptide (440 µg/mL), and using a 96-well microtiter plate peptide, serial dilution (200, 100, 50, 25, 12.5, and 6.2 µg/mL) was performed. 10 µL of inoculum (2 × 10^6 CFU/mL) was added to each well. Final volume in each well was 100 µL. Then they were incubated for 24 h at 37 °C; and the absorbance at 620 nm was measured using an Asys Expert Plus ELISA reader. To determine the MBC, an aliquot was taken from each well and was spread onto a MHA plate. After 24 h at 37 °C, the CFU/mL was determined. Each of these tests was performed twice.

Test [2] has as its system S. maltophilia ATCC 13636. The test is classed as cell-based, Stenotrophomonas maltophilia. The following applies: S. maltophilia ATCC 13636, value in brackets (µM), 24 h at 37 °C, performed twice. As for the experimental part:
as §1

Test [3] deals with S. enteritidis ATCC 13076. The test is classed as cell-based, Salmonella enteritidis. As to conditions: S. enteritidis ATCC 13076, value in brackets (µM), 24 h at 37 °C, performed twice. As for the experimental part:
as §1

In test [4] the test system is E. coli ATCC 11775. The test is classed as cell-based, Escherichia coli. As to conditions: 200 µg/well, 8 mm wells in Mueller-Hinton agar, 48 h at 37 °C. As for the experimental part: (§2) These tests were carried out following the methodology reported in [36]. Briefly, an inoculum aliquot (200 µL; 2 × 10^6 CFU/mL) was placed on Mueller-Hinton (MH) Agar plates, mixed, and allowed to solidify. Wells were drilled using a punch of 8 mm, and then each hollow was filled with 100 µL of peptide (2000 µg/mL). Incubation for 48 h at 37 °C was then performed. As a non-growth control, ciprofloxacin 1.25 µg/mL was used for all tested strains. Sterile water was used as a growth control.

The subject of test [5] is S. maltophilia ATCC 13636. Format: cell-based, Stenotrophomonas maltophilia. The following applies: 200 µg/well, 8 mm wells in Mueller-Hinton agar, 48 h at 37 °C. As to the method:
as §2

Test [6] concerns S. enteritidis ATCC 13076. The test is classed as cell-based, Salmonella enteritidis. The following applies: 200 µg/well, 8 mm wells in Mueller-Hinton agar, 48 h at 37 °C. As to the method:
as §2

In test [7] the test system is various strains of E. coli (0111, L361, ATCC 25922, wild strain, and IID-861). As to conditions: various strains of E. coli (0111, L361, ATCC 25922, wild strain, IID-861); cited from earlier work. As to the method: For BLF, a Minimum Inhibitory Concentration (MIC) and Minimum Bactericidal Concentration (MBC) larger than 200 µg/mL against the evaluated strains were found (Table 1), implying that high concentrations of the protein are required to achieve antibacterial activity. […] Furthermore, its purification is a long and expensive process.

[8] abbreviates: microdilution, Mueller-Hinton broth.

B1: BLF: Bovine lactoferrin, 703 amino acids, 80 kDa glycoprotein; obtained from Sigma-Aldrich (protein, UniProt P24627 20-708, looked up)
Lactotransferrin: APRKNVRWCTISQPEWFKCRRWQWRMKKLGAPSITCVRRAFALECIRAIAEKKADAVTLDGGMVFEAGRDPYKLRPVAAEIYGTKESPQTHYYAVAVVKKGSNFQLDQLQGRKSCHTGLGRSAGWIIPMGILRPYLSWTESLEPLQGAVAKFFSASCVPCIDRQAYPNLCQLCKGEGENQCACSSREPYFGYSGAFKCLQDGAGDVAFVKETTVFENLPEKADRDQYELLCLNNSRAPVDAFKECHLAQVPSHAVVARSVDGKEDLIWKLLSKAQEKFGKNKSRSFQLFGSPPGQRDLLFKDSALGFLRIPSKVDSALYLGSRYLTTLKNLRETAEEVKARYTRVVWCAVGPEEQKKCQQWSQQSGQNVTCATASTTDDCIVLVLKGEADALNLDGGYIYTAGKCGLVPVLAENRKSSKHSSLDCVLRPTEGYLAVAVVKKANEGLTWNSLKDKKSCHTAVDRTAGWNIPMGLIVNQTGSCAFDEFFSQSCAPGADPKSRLCALCAGDDQGLDKCVPNSKEKYYGYTGAFRCLAEDVGDVAFVKNDTVWENTNGESTADWAKNLNREDFRLLCLDGTRKPVTEAQSCHLAVAPNHAVVSRSDRAAHVKQVLLHQQALFGKNGKNCPDKFCLFKSETKNLLFNDNTECLAKLGGRPTYEEYLGTEYVTAIANLKKCSTSPLLEACAFLTR
As for B1, the MBC (against E. coli ATCC 11775 [1] (aliquot spread on MHA plate); in test [2] (aliquot spread on MHA plate); in test [3] (aliquot spread on MHA plate)) was above 2.5 µM in each case. Moreover, the MIC (against E. coli ATCC 11775 [1] (setting [8]); in test [2] (setting [8]); in test [3] (setting [8])) was above 2.5 µM throughout. Also, the inhibition halo (in the test on E. coli ATCC 11775 [4]; in test [5]; in test [6]) was ~ 9 mm throughout. Moreover, the “BLF concentration required for exhibiting an antibacterial effect” value in test [7] is “greater than 200 µg/mL”.
